# According to US12391762B2, “Methods and compositions relating to GLP1R variants” (Twist Bioscience Corporation, priority 2020, dated 2025):
# Columns and labels:
# [1] = Rat PK study, ELISA for human IgG in plasma; type: in vivo; conditions: 10 mg/kg IV, 2-week PK study, beta phase
# Method: The rat PK study was done at Charles River Laboratories, One Innovation Dr, 3 Biotech, Worcester, MA 01605. 5 Male Sprague-Dawley rats per group were allowed to acclimate after receiving at test facility for a minimum of 3 days before dosing. […] Serial blood samples were collected via jugular vein cannula with ˜250 ul volume at each time point: pre-dose, 0.0833, 0.25, 0.5, 1, 2, 4, 8, 24, 48, 72, 96, 168, 240 and 336 hours post dose. Blood samples were collected into K2EDTA tubes and stored on wet ice until processed to plasma by centrifugation (3500 rpm for 10 minutes at 5° C.) within 30 minutes of collection. Plasma samples were then transferred into an appropriate tube containing DPP-4 (3.3 μL for 100 μL of plasma) and frozen on dry ice. To measure the human IgG in rat plasma samples, sheep anti-Human IgG (1 mg/mL) was used as coating reagent) (The binding site, Lot No. AU003.M), and goat anti-Human IgG, HRP (H&L) (1 mg/mL) was used as detection reagent) (Bethyl, cat #A80-319P) in an ELISA assay. Stock solutions of human IgG standards and QCs were prepared by spiking human IgG into rat plasma. […] The semi-logarithmic sigmoid calibration curve was obtained by plotting the absorbance response against concentration. Concentrations of analyte in the test samples were determined by computer interpolation from the plot of the calibration curve.
# [2] = system: CHO-parent cells; experiment: Flow cytometry binding assay on CHO-parent cells (background binding); design: species or system Chinese Hamster
# Method: GLP-1R IgG clones were tested in a binding assay coupled to flow cytometry analysis as follows: FLAG-GLP-1R-GFP expressing CHO cells (CHO-GLP-1R) and CHO-parent cells were incubated with 100 nM IgG for 1 h on ice, washed three times and incubated with Alexa 647 conjugated goat-anti-human antibody (1:200) (Jackson ImmunoResearch Laboratories, 109-605-044) for 30 min on ice, followed by three washes, centrifuging to pellet the cells between each washing step. All incubations and washes were in buffer containing PBS+1% BSA. For titrations, IgG was serially diluted 1:3 starting from 100 nM down to 0.046 nM. Cells were analyzed by flow cytometry and hits (a hit is an IgG that specifically binds to CHO-GLP-1R) were identified by measuring the GFP signal against the Alexa 647 signal. Flow cytometry data of binding assays with 100 nM IgG are presented as dot plots. Analyses of binding assays with IgG titrations are presented as binding curves plotting IgG concentrations against MFI (mean fluorescence intensity).
# [3] = biological target: T1, GLP-1R (Homo sapiens, UniProt P43220); experiment: Ec50; design: The full length human GLP-1R gene (UniProt-P43220) with an N-terminal FLAG tag and C-terminal GFP tag; expressed in transfected cells
# Source text: Table printed on a drawing sheet, FIG. 16A
# [4] = Insulin Tolerance Test (ITT); type: in vivo, mouse; conditions: for Area Under the Curve (AUC) in ITT: vs control
# Method: Animals. All animal procedures were approved by Institutional Animal Care and Use Committee (IACUC) at the University of California San Francisco and were conducted in accordance with the National Institutes of Health Guide for the Care and Use of laboratory Animals. C57BL/6NHsd (Envigo RMS, LLC) male littermates at 8-10 weeks of age, weighing ˜20-28 grams, were used in all the studies described. The mice were housed in a room that was temperature (22-25 C) and light controlled (12-h: 12-h light/dark cycle starting at 7 AM. The mice were fed with chow diet with 9% fat (PicoLab mouse Diet 20 (#5058), Lab Supply, Fortworth Texas, USA) for the duration of housing at the UCSF animal care facility.
# 1. mAb administered as a single dose, 15 hours prior to GTT and 21 hours prior to ITT. 2. mAb administered as a double dose, 15 hours prior to GTT and 21 hours prior to ITT plus a second mAb dose 2 hours prior to GTT and ITT. 3. mAb as a single dose 6 hours prior to GTT and ITT. 4. mAb single dose 2 hours prior to GTT and ITT.
# Extendin 9-39 Peptide (MedChemExpress, Cat. No.: HY-P0264) were dosed at 1.0 or 0.23 mg/kg at three different administration regimen groups. 1. Extendin administered as a single dose, 21 hours prior to ITT. 2. Extendin administered as a double dose, 21 hours prior to ITT plus a second Extendin dose 2 hours prior to ITT. 3. mAb as a single dose 6 hours prior to ITT.
# An Insulin Tolerance Test (ITT) was conducted to assess two different anti-GLP1 mAbs (agonist and antagonist) effect on insulin sensitivity following acute insulin administration. 8 or 10-week old male mice were fasted for 6 hours and body weight was recorded before and after fasting. To avoid circadian variations in mouse blood glucose levels this testing was performed at fixed times. Blood samples were collected by tail nick and baseline glucose was measured prior to insulin injection. Mice were injected, i.p., with a single bolus (0.75 U/Kg body weight) of human insulin (Novolin, Novo Nordisk) and blood glucose levels were measured at 15, 30, 45, 60 and 120 minutes after insulin injection. Blood glucose levels were monitored using a OneTouch Ultra 2 glucose monitor (LifeScan, Inc.).
# [5] = biological target: T1, GLP-1R; experiment: Beta arrestin recruitment assay, GLP-1R overexpressing CHO-K1 cells; type: cell-based; design: host or cells: CHO-K1; conditions: 100 nM IgG pre-incubated 1 hr
# Method: Beta arrestin recruitment assy. β-arrestin recruitment assay was obtained from Eurofins DiscoverXX (Cat #93-0300E2) that utilized untagged GLP-1R overexpressing CHO-K1 cells. […] Expanded cells were seeded into 96 well plates at 5,000 cells/well, and the experiment was performed 48 hours after plating cells. […] Add 22.5 uL of detection solution to each well, tap gently and briefly spin down. Then incubate plates at RT for 1 hour in the dark. The plates were then read by a Chemiluminescence plate reader, Molecular Devices SpectraMax® M5, and output relative light units (RLU) data were analyzed using GraphPad Prism™.
# Target sequence in this assay (P43220 24-463): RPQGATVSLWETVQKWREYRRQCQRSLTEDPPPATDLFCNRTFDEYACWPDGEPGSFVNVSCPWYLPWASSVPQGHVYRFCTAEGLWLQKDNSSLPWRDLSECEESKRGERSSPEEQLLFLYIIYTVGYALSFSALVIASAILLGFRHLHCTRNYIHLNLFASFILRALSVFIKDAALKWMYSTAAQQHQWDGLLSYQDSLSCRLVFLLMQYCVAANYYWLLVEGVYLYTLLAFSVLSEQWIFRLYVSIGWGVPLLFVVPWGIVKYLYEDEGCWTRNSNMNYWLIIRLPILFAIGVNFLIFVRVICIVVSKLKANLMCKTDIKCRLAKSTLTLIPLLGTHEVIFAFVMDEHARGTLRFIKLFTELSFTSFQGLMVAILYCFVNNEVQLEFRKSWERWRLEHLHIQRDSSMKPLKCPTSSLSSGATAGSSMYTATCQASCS
# [6] = biological target: T1, GLP-1R; experiment: cAMP assays (agonist and antagonist mode), GLP-1R over-expressing CHO-K1 cells; type: cell-based; design: host or cells: CHO-K1; conditions: pre-incubation with fixed concentration of IgG (100 nM), then GLP-1 7-36 titration
# Method: CAMP assays. GLP-1R IgG clones were tested for their potential effects on GLP-1R signaling by performing cAMP assays obtained from Eurofins DiscoverXX. The technology involved in detecting cAMP levels is a no wash gain-of-signal competitive immunoassay based on Enzyme Fragment Complementation technology. Experiments were designed to test for either agonist or antagonist activity of the IgG clones. To test for agonist activity of the IgGs, cells were stimulated with IgG incubating for 30 min at 37° C. […] Intracellular CAMP levels were detected by following the assay kit instructions.
# Target sequence in this assay (P43220 24-463): as above
molecule,measurement,setting,value
GLP1R-3: antagonist GLP-1R IgG with GLP-1 motif in CDRH3 (SEQ ID NO 20) (antibody) heavy: QVQLVESGGGVVQPGRSLRLSCAASGFTFSSYGMHWVRQAPGKGLEWVSFISYDESNKYYADSVKGRFTISRDNSKNTLYLQMNSLRAEDTAVYYCAKHMSMQEGAVTGEGQAAKEFIAWLVKGRVRADLVGDAFDVWGQGTLVTVSSASTKGPSVFPLAPCSRSTSESTAALGCLVKDYFPEPVTVSWNSGALTSGVHTFPAVLQSSGLYSLSSVVTVPSSNFGTQTYTCNVDHKPSNTKVDKTVERKCCVECPPCPAPPVAGPSVFLFPPKPKDTLMISRTPEVTCVVVDVSHEDPEVQFNWYVDGVEVHNAKTKPREEQFNSTFRVVSVLTVVHQDWLNGKEYKCKVSNKGLPAPIEKTISKTKGQPREPQVYTLPPSREEMTKNQVSLTCLVKGFYPSDIAVEWESNGQPENNYKTTPPMLDSDGSFFLYSKLTVDKSRWQQGNVFSCSVMHEALHNHYTQKSLSLSPGK light: QSVLTQPPSVSAAPGQKVTISCSGSSSNIADNYVSWYQQLPGTAPKLLIYDNNKRPSGIPDRFSGSKSGTSATLGITGLQTGDEADYYCGTWDNYLGAGVFGGGTKLTVLGQPKAAPSVTLFPPSSEELQANKATLVCLISDFYPGAVTVAWKADSSPVKAGVETTTPSKQSNNKYAASSYLSLTPEQWKSHRSYSCQVTHEGSTVEKTVAPTECS,in vivo half-life,[1],~1 week
same,Median RL1-H of Parent Singlets,"[2]; Table 6C, GLP1R-221 variants",234
same,Median RL1-H of Parent Singlets,"[2]; Table 6D, GLP1R-222 variants",302.5
same,Bmax CHO Parent,"[2]; Table 6E, IgG titration",268
same,EC50,[3],3.94 nM
same,Area Under the Curve (AUC) in ITT,"[4]; 19+2 hour, GLP1R-3 20 mg/kg, Exendin 1 mg/kg",significant (p<0.0001)
same,blood glucose after insulin challenge,"[4]; 19+2 hours dosing regimen, C57BL/6NHsd mice",significantly stabilizes a higher blood glucose
same,blood glucose after insulin challenge,"[4]; single 6 hour dosing regimen, comparator antibody experiment, 20 mg/kg",significantly stabilized a higher blood glucose
same,blood glucose after insulin challenge,"[4]; single 6 hour dosing regimen, compared to Exendin 9-39 or control",significantly stabilizes a higher blood glucose
same,Area Under the Curve (AUC) in ITT,"[4]; single 6 hour treatment, GLP1R-3 20 mg/kg, Exendin 1.0 and 0.23 mg/kg",significantly (p<0.05) stabilizes
same,Area Under the Curve (AUC) in ITT,"[4]; single 6 hour treatment, comparator antibody experiment, 20 mg/kg",significantly (p<0.05) stabilized
same,effect on GLP-1 7-36 induced β-arrestin recruitment,[5],inhibition of GLP-1 7-36 peptide-induced beta arrestin recruitment
same,antagonist activity: effect on GLP-1 7-36-induced GLP-1R cAMP signaling,[6],clear dose-dependent inhibition of the CAMP signal
